Source: patent publication US20150368353A1

Target: podoplanin on human brain tumor cells (glioblastoma and medulloblastoma cells and xenografts) (human) (UniProt Q86YL7)
Assay: cell-based or functional assay

Q: dsNZ-1-PE38KDEL immunotoxin (scFv) was tested. Which IC50 of cytotoxicity (inhibition of protein synthesis, 3H-leucine incorporation) did it give?
A: 0.5 to 6.9 ng/mL
